Measured values: patent US20090232762A1, “COMPOSITIONS FOR DELIVERY OF THERAPEUTIC AGENTS” (priority 2008, published 2009)

Experiments:
Format in all cases: biochemical, S. cerevisiae
[1] = substrate: Nc1nc(=O)[nH]cc1F; assay: Enzyme activity of yCD-His (substrate turnover); details: other: enzyme yCD-His, 10 uL of 4.52 ug/mL stock; average ±SE; 23.0 °C
Method: (§1) The S. cerevisiae yeast cytosine deaminase (yCD) enzyme was cloned and expressed. The resulting 474 bp gene was subcloned into pET-15b to facilitate purification of the protein via a fused histidine tag and transformed into competent BL21(DE3) cells for protein expression. An estimate of about 25-30 mg of pure yCD-His was collected from a 1-liter culture. Thrombin cleavage of the histidine tag on yCD-His was achieved by incubating the protein for 2 hours at 23° C. in thrombin cleavage buffer. Enzyme activity characteristics for yCD and yCD-His was investigated using both the prodrug 5FC and the enzyme's natural substrate, the DNA base cytosine. Five-FC turnover rates remained within 10^5 M^−1·s^−1 (Table 1) for both proteins (see E. Kievit et al. Cancer Res. 2000, 60:6649-6655). The diffusion controlled limit for extremely efficient enzymes and their substrates in solution is in the range 10^8-10^9 M^−1·s^−1, therefore it was concluded that yCD was a very efficient pretargeting enzyme for catalyzing 5FC to 5FU conversion, especially applicable to GDEPT.

[2] = substrate: Nc1cc[nH]c(=O)n1; assay: Enzyme activity of yCD-His (substrate turnover); details: other: enzyme yCD-His, 10 uL of 4.52 ug/mL stock; average ±SE; 23.0 °C
Method: as §1

[3] = substrate: Nc1nc(=O)[nH]cc1F; assay: Enzyme activity of yCD (His tag cleaved); details: other: enzyme yCD, 10 uL of 4.23 ug/mL stock; average ±SE; 23.0 °C
Method: as §1

[4] = substrate: Nc1cc[nH]c(=O)n1; assay: Enzyme activity of yCD (His tag cleaved); details: other: enzyme yCD, 10 uL of 4.23 ug/mL stock; average ±SE; 23.0 °C
Method: as §1

| Protein | Km [1] | Km [2] | Km [3] | Km [4] |
| --- | --- | --- | --- | --- |
| yCD-His (Saccharomyces cerevisiae S288C) (protein, The resulting 474 bp gene was subcloned into pET-15b; made in house; host or cells: E. coli BL21(DE3)) MVTGGMASKWDQKGMDIAYEEAALGYKEGGVPIGGCLINNKDGSVLGRGHNMRFQKGSATLHGEISTLENCGRLEGKVYKDTTLYTTLSPCDMCTGAIIMYGIPRCVVGENVNFKSKGEKYLQTRGHEVVVVDDERCKKIMKQFIDERPQDWFEDIGE | 1000 ± 240 µM | 4040 ± 1120 µM | – | – |
| yCD (Saccharomyces cerevisiae S288C) (protein, The resulting 474 bp gene was subcloned into pET-15b; histidine tag (pET-15b) (N, cleaved yes); made in house; host or cells: E. coli BL21(DE3)) MVTGGMASKWDQKGMDIAYEEAALGYKEGGVPIGGCLINNKDGSVLGRGHNMRFQKGSATLHGEISTLENCGRLEGKVYKDTTLYTTLSPCDMCTGAIIMYGIPRCVVGENVNFKSKGEKYLQTRGHEVVVVDDERCKKIMKQFIDERPQDWFEDIGE | – | – | 800 ± 180 µM | 3750 ± 690 µM |
